Among the data in article PMC6080896 are Kd, fold reduction of binding against WT stac3 and fold weakening of affinity against WT stac3 values, retold here.

pKd: −log10 of the molar value.

This test addresses Venus-tagged CaV1.1 CI (Ven-CaV1.1 CI) (UniProt P07293). The experiment in a line: FRET or BRET.

Chain of Cer-tagged stac3 variant W[284]S (Native American myopathy) (natural protein) (Q96MF2 whole entry, change not shown): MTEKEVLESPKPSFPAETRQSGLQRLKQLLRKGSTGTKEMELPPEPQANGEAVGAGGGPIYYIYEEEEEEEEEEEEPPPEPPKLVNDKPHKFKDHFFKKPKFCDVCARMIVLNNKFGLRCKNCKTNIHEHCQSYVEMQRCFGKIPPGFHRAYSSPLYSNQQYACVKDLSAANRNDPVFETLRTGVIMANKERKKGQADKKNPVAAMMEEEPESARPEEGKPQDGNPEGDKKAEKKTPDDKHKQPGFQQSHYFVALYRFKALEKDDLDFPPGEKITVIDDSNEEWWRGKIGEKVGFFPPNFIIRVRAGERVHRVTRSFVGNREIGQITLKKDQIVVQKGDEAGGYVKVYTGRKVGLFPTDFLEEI
Chain of Cer-tagged stac3 variant L[111]Δ (natural protein) (Q96MF2 whole entry, stated change not applied): as the sequence (Q96MF2 whole entry, change not shown) above
Chain of Cer-tagged stac3 variant K[288]* (domain or fragment) (Q96MF2 whole entry, change not shown, the tested form may be a part): as the sequence (Q96MF2 whole entry, change not shown) above

For orientation: pKd means the negative decadic logarithm of the Kd, by convention in mol/L. Low readings indicate a high Kd, high ones a low Kd. Turning to “Cer-tagged stac3 (wild type) (natural protein)”, the pKd was 6.40.
The substance “Cer-tagged stac3 variant K[288]* (domain or fragment)” came in with a fold reduction of binding against WT stac3 of 2 fold.
Turning to “Cer-tagged stac3 variant L[111]Δ (natural protein)”, the fold weakening of affinity against WT stac3 was determined as 10 fold.
The same measure, in the same setting: then “Cer-tagged stac3 variant W[284]S (Native American myopathy) (natural protein)”, with 10 fold.
